# Test results taken from article PMC6602975 (2019).
# B1: Sir3 BAH D205Q (domain or fragment)
# chain: MAKTLKDLDGWQVIITDDQGRVIDDNNRRRSRKRGGENVFLKRISDGLSFGKGESVIFNDNVTETYSVYLIHEIRLNTLNNVVEIWVFSYLRWFELKPKLYYEQFRPDLIKEDHPLEFYKDKFFNEVNKSELYLTAELSEIWLKDFIAVGQILPESQWNDSSIDKIEDRDFLVRYACEPTAEKFVPIDIFQIIRRVKEMEPKQSQEYLKRVSVP
# B2: Wild-type Orc1 (1–214) BAH domain (domain or fragment)
# chain: MAKTLKDLQGWEIITTDEQGNIIDGGQKRLRRRGAKTEHYLKRSSDGIKLGRGDSVVMHNEAAGTYSVYMIQELRLNTLNNVVELWALTYLRWFEVNPLAHYRQFNPDANILNRPLNYYNKLFSETANKNELYLTAELAELQLFNFIRVANVMDGSKWEVLKGNVDPERDFTVRYICEPTGEKFVDINIEDVKAYIKKVEPREAQEYLKDLTLP
# modifications: N-alpha-acetyl on A2 (acetylated at the α-amino group when purified from eukaryotic cells)
# Key:
# H4K16ac nucleosome = H4K16ac nucleosome (X. laevis | , acetyl-lysine at K16)
# [1] = target: Unmodified nucleosome core particle (X. laevis histone octamer on 147 bp Widom-601 DNA) (X. laevis)
Binder,Kd (H4K16ac nucleosome) [nM],Kd [1] [nM]
B1,1200,300
B2,,1100
